Measured values published in patent US20070224174A1.

Biological target: murine Axl receptor tyrosine kinase on precursor natural killer (pNK) cells (mouse) (UniProt Q00993)
Test: cell-based or functional assay

Chain of UniProt Q00993 (Q00993 19-888): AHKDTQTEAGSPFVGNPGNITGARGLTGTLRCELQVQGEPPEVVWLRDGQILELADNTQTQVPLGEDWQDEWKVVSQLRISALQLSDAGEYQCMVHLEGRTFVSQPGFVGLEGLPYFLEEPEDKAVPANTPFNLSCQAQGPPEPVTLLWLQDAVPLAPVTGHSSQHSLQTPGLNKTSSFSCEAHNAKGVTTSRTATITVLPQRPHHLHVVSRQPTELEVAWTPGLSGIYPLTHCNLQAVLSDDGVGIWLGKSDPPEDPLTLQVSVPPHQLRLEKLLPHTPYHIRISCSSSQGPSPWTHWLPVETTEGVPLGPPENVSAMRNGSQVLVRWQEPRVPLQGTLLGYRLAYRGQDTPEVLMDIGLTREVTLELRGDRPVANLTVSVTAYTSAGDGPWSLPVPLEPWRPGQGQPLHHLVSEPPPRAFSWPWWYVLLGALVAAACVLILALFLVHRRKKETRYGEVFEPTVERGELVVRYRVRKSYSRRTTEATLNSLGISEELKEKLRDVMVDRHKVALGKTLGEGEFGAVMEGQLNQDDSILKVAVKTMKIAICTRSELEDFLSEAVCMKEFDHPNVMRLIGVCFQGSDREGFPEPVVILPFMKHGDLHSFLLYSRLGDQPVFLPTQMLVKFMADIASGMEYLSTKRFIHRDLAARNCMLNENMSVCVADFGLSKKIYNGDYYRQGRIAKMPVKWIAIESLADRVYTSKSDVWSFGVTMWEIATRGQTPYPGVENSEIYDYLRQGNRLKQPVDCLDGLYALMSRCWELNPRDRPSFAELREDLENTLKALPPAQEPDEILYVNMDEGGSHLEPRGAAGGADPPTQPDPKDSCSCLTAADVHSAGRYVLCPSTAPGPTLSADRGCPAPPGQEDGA

murine Gas6 protein secreted from the murine Gas6 transfectant (NIH3T3 transfected with pcDNA3.1-Gas6) (from UniProt Q61592 28-674) (ligand)
degree of differentiation of pNK cells into mNK cells (FACS), co-culture with murine Gas6 transfectant against control groups: 47%
